# Test: yeast display, Sf9 membrane polyspecificity reagent, FACS + sequencing; frameworks hold sequencing errors
# Procedure, shortened: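 Galactose induction of a Saccharomyces cerevisiae BJ5465 synthetic nanobody display library ran 36–48 hours. The cells were then stained for 1 hour at 4 °C with 10% biotinylated, detergent-solubilized Sf9 membrane reagent, pulled down on streptavidin microbeads and FACS-sorted into low and high (top ~1%) gates on expression and reagent-binding fluorescence. Labels for polyreactivity follow the gate of origin.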
row,Sequence,polyreactivity (PSR sort gate)
1,QVQLVESGGGLVQAGGSLRLSCAASGFTFYLYTMGWYRQAPGKERELVATINSDGGTNYADSVKGRFTISRDNAKNSVYLQMNSLKPEDTAVYYCNAASRRGSRKQAKYEYWGQGTQVTVSS,low polyreactivity
2,QVQLVESGGGLVQAGGSLRLSCAASGFTFYNNAMGWYRQAPGKERELVAVITSNGGRTYYADSVKGRFTISRDNAKNTVYLQMNSLKPEDTAVYYCAKDYKALYLYHYRISGGDVDYWGQGTQVTVSS,low polyreactivity
3,QVQLVESGGGLVQAGGSLRLSCAASGFTFYPYAMGWYRQAPGKERELVAAITSGGRTNYADSVKGRFTISRDNAKNTVYLQMNSLKPEDTAVYYCNTVSWWGRNYQDEYYYWGQGTQVTVSS,high polyreactivity
4,QVQLVESGGGLVQAGGSLRLSCAASGFTFYPYTMGWYRQAPGKERELVAAISSSGGSTYYADSVKGRFTISRDNAKNTVYLQMNSLKPEDTAVYYCNKYQRNWFSRAPMDYWGQGTQVTVSS,high polyreactivity
5,QVQLVESGGGLVQAGGSLRLSCAASGFTFYPYVMGWYRQAPGKERELVAAINSGGARTYYADSVKGRFTISRDNAKNTVYLQMNSLKPEDTAVYYCAARTVVGGRIYYYWGQGTQVTVSS,high polyreactivity
6,QVQLVESGGGLVQAGGSLRLSCAASGFTFYQNAMGWYRQAPGKVRELVAAIDRRGGRTYNADSVKGRFTISRDNAKKTVYLQMNSLKPEDTAVYYCNKEKYYTGYDYWGQGTQVTVSS,high polyreactivity
7,QVQLVESGGGLVQAGGSLRLSCAASGFTFYQYAMGWYRQAPGKERELVAAITRRGGSTSYADSVKGRFTISRDNAKNTVYLQMNSLKPEDTAVYYCAREGSNSGRHGTLFDYWGQGTQVTVSS,high polyreactivity
8,QVQLVESGGGLVQAGGSLRLSCAASGFTFYRNAMGWYRQAPGKERELVAAITWSGTSTYYADSVKGRFTISRDNAKNTVYLQMNSPKPEDTAVYYCNTVGYRGRSNSRFYYWGQGTQVTVSS,high polyreactivity
9,QVQLVESGGGLVQAGGSLRLSCAASGFTFYRYAMGWYRQAPGKEREFVASISWSGGSTYYADSVKGRFTISRDNAKNTVYLQMNSLKPEDTAVYYCAATSQAYWDLWSTYYTYYYWGQGTQVTVSS,high polyreactivity
10,QVQLVESGGGLVQAGGSLRLSCAASGFTFYRYAMGWYRQAPGKERELVAAISRGGSTNYADSVKGRFTISRDNAKNTVYLQMNSLKPEDTAVYYCNTRYVKGFYWGQGTQVTVSS,high polyreactivity
11,QVQLVESGGGLVQAGGSLRLSCAASGFTFYRYAMGWYRQAPGKERELVAAISSTGDRTYYADSVKGRFTISRDNAKNTVYLQMNSLKPEDTAVYYCAAPYQNQVEFNYWGQGTQVTVSS,high polyreactivity
12,QVQLVESGGGLVQAGGSLRLSCAASGFTFYRYAMGWYRQAPGKERELVAAITWSGGSTYYADSVKGRFTISRDNAKNTVYLQMNSLKPEDTAVYYCAASRWIFQVNDYDYWGQGTQETVSS,high polyreactivity
13,QVQLVESGGGLVQAGGSLRLSCAASGFTFYRYAMGWYRQAPGKERELVATISASGASTYYADSVKGRFSISRDNAKNNVYLQMNRLKPEDTAVYYCAVRYKSWYGFNYWGQGTQVTVSS,high polyreactivity
14,QVQLVESGGGLVQAGGSLRLSCAASGFTFYRYAMGWYRQAPGKERELVAVITRGGSTNYADSVKGRFTISRDNAKNTVYLQMNSLKPEDTAVYYCAARWFAGDWDYWYDYWGQGTQVTVSS,low polyreactivity
15,QVQLVESGGGLVQAGGSLRLSCAASGFTFYRYARGWYRQAPGKERELVAAISSDGTTYYADSVKGRFTISRDNATNTVYLQMNSLKPEDTAVYYCAKRGYYRSRRYDYWGQGTQVTVSS,high polyreactivity
16,QVQLVESGGGLVQAGGSLRLSCAASGFTFYRYDMGWYRQAPGKERELVAAITNNGGNTYYADSVKGRFTISRDNAKNTVYLQMNSLKPEDTAVYYCATKRYYWRGYWGQGTQVTVSS,high polyreactivity
17,QVQLVESGGGLVQAGGSLRLSCAASGFTFYRYTMGWYRPARGKESELVARITYSGGSTYYADSVKGRFTISRDNAKNTVYLQLNSVKPVDTAVYYCNARSDFYSRYGYKYDYWGQGTQVTVSS,high polyreactivity
18,QVQLVESGGGLVQAGGSLRLSCAASGFTFYRYTMGWYRQAPGIYRELVAAISSGDSTYYADSVKGRFTISRDNAKNTVYLQMNSLKPEDTAVYYCAARQYSRGAIVYYWGQGTQVTVSS,high polyreactivity
19,QVQLVESGGGLVQAGGSLRLSCAASGFTFYSKAMGWYRQAPGKERQLVATIRSDGRTNYADSVKGRFTISRDNAKNTVYLQMNSLNPEDTAVYYCNADYRNDWGTPLWYAYNYWGQGTQVTVSS,low polyreactivity
20,QVQLVESGGGLVQAGGSLRLSCAASGFTFYSNAMGWSRQAPGKERELVATIRYRGGSTYADSVKGRFTISRDNAKNTVYLQMNSLKPEDTAVYYCAARKYRSFRQRTGDYWGQGTQVTVSS,high polyreactivity
21,QVQLVESGGGLVQAGGSLRLSCAASGFTFYSNAMGWYRQAPGKERELVAAITSSGGSTYYADSVKGRFTISRDNAKNTVYLQMNSLKPEDTAVDYCNVRVGYRRYGYWGQGTQVTVSS,high polyreactivity
22,QVQLVESGGGLVQAGGSLRLSCAASGFTFYSYAMGWYRQAPGKEREFVAAGSTYYADSVKGRFTISRGNAKNTVYLQMNSLKPEDTAVYYCAADPWIYVQSYGYWGQGTQVTVSS,low polyreactivity

row,Sequence,polyreactivity (PSR sort gate)
1,QVQLVESGGGLVQAGGSLRLSCAASGFTFYSYAMGWYRQAPGKERELVAAISKRGGDTSYADSVKGRFTISRDNAKNTVYLQMNSLKPEDTAVYYCAKVYVPYGSSGGFLSRYNYWGQGTQVTVSS,high polyreactivity
2,QVQLVESGGGLVQAGGSLRLSCAASGFTFYSYAMGWYRQAPGKERELVAAITRSGGSTRYADSVKGRFTISRDNAKNTVYLQMNSLKPEDTAVYYCAARFVRNYVYKYNYWGQGTQVTVSS,high polyreactivity
3,QVQLVESGGGLVQAGGSLRLSCAASGFTFYSYAMGWYRQAPGKERELVAGISRSGGSTYYADSVKGRFTISRDNAKNTVYLQMNSLKPEDTAVYYCNVRLRKKIQNSKYDYWGQGTQVTVSS,high polyreactivity
4,QVQLVESGGGLVQAGGSLRLSCAASGFTFYTNAMGWYRQAPGKERELVAAISKRGASTYYADSVKGRFTISRDNAKNTFYLQMYSLKPEDTAVYYCAASSRTHGSYYYWGQGTQVTVSS,high polyreactivity
5,QVQLVESGGGLVQAGGSLRLSCAASGFTFYTNAMGWYRQAPGKERELVAGINSGSSTYYADSVKGRFTISRDNAKNTVYLQMNSLKPEDTAVYYCAARARRRYYYWGQGTQVTVSS,high polyreactivity
6,QVQLVESGGGLVQAGGSLRLSCAASGFTFYTNTMGWYRQAPGKERELVAVISRTGGSTYYADSVKGRFTISRDNANNTVYLQMKSLKPEDTAVYYCAKRGQWPYDYFIGNYWGQGSQVTVSS,high polyreactivity
7,QVQLVESGGGLVQAGGSLRLSCAASGFTFYTYALGWYRQAPGKEWELVAAITSGGGTYYADSVKGRFTISRDNAKNTVYLQMNSLKPEDTAVYYCNRASRRGYYYPYNYWGQGTQVTVSS,high polyreactivity
8,QVQLVESGGGLVQAGGSLRLSCAASGFTFYTYVKGWYRQAPGKERELVAAITSGVSTNYADSVKGRFTISRDNAKNTVYLQMNSVKPEDTAVYYFNKTFLFLEYDSWGQGTQVTVSS,low polyreactivity
9,QVQLVESGGGLVQAGGSLRLSCAASGFTFYVNAMGWYRQAPGKERELVAVISTGGSTYYADSVKGRFTISRDNAKNTVYLQMNSLKPEDTAVYYCAKRDLPDRSGTPNVIPFDYWGQGTQVTVSS,low polyreactivity
10,QVQLVESGGGLVQAGGSLRLSCAASGFTFYVYAMGWYRQAPGKEREFVAAISSSGGSTYYADSVKGRFTISRDNAKNTVYLQMNSLKPEDTAVYYSAALAYSTTRGRLDYWGQGTQVTVSS,high polyreactivity
11,QVQLVESGGGLVQAGGSLRLSCAASGFTFYVYAMGWYRQAPGKERELVAAISRSGGSTYYADSVKGRFTISRDNAKNTVYLQMNSLKPEDTAVYYFAVVQRYWSPGIVPYVYWGQGTQVTVSS,high polyreactivity
12,QVQLVESGGGLVQAGGSLRLSCAASGFTFYWYTMGWNRQAPGKERELVAAISRRGGSTSYADSVKGRFTISRDNAKNTVYLQMNSLKPEDTAVYYCAKTPGWTDYDYWGQGTQVTVSS,high polyreactivity
13,QVQLVESGGGLVQAGGSLRLSCAASGFTFYYNAMGGYRQAPGKEREFVAGITRTGGSTYYADSVKGRFTISRDNAMNTVYLQIKSLKPEDTAVYYCAATHYYYGTSRYDYWGQVTQVTVSS,high polyreactivity
14,QVQLVESGGGLVQAGGSLRLSCAASGFTFYYNAMGWYRQAPGKERELVAAISWTGGSTRYADSVKGRFTISRDNAKNTVYLQMNSLKPEDTAVYYCAARGYNYWGQGTQVTVSS,high polyreactivity
15,QVQLVESGGGLVQAGGSLRLSCAASGFTFYYNAMGWYRQAPGKERELVASITRSGGRTYYADSVKGRFTISRDNAMNTVYLKMNSLKPEDTAVYYCARRYPRGYYWGQGTQVTVSS,high polyreactivity
16,QVQLVESGGGLVQAGGSLRLSCAASGFTFYYNAMGWYRQAQGKERELVAAMSRSGGRTYYADSVKGRFTISRDNAKNTVYLQMNSLKPEDTAVYYCNRRTRPDGGESDYWGQGTLVTVSS,high polyreactivity
17,QVQLVESGGGLVQAGGSLRLSCAASGFTFYYYAMGWSRQAPGKERELVASISKRGGTYYADSVKGRFTISRDNAKNTVYLQMNSLKPEDTAVYYCAAGIPRQAYKFYWGQGTQVTVSS,high polyreactivity
18,QVQLVESGGGLVQAGGSLRLSCAASGFTFYYYAMGWYRPAPGKERELVAGITGSGGRTYYADSVKGRFTISRDNAKITVYLQMNSLKPEDTAVYYSNARSLWYDYWGQGTQVTVSS,high polyreactivity
19,QVQLVESGGGLVQAGGSLRLSCAASGFTFYYYAMGWYRQAPGKERELVAAISISGASTYYADSVKGRFTISRDNAKNTVYLQMNSLKPEETAVDYCAKRTKGYTYHHEYGYWGQGTQVTVSS,low polyreactivity
20,QVQLVESGGGLVQAGGSLRLSCAASGFTFYYYAMGWYRQAPGKERELVAAISRSGGSTYYADSVKGRFTISRDNAKNTVYLQMNSLKPEDTAVYYCAARRLVGAERPGYDYWGQGTQVTVSS,high polyreactivity
21,QVQLVESGGGLVQAGGSLRLSCAASGFTFYYYAMGWYRQAPGKERELVAAISTRDGNTYYADSVKGRFTISRDNAKNTVYLQMNSLKPEDTAVYYCAADYFRYYPYDYSGQGTQVTVSS,low polyreactivity
